Laboratory results from article PMC3969020.

B1: Horse liver alcohol dehydrogenase (ADH), E isoenzyme (Equus caballus; V208A) (protein)
chain: STAGKVIKCKAAVLWEEKKPFSIEEVEVAPPKAHEVRIKMVATGICRSDDHVVSGTLVTPLPVIAGHEAAGIVESIGEGVTTVRPGDKVIPLFTPQCGKCRVCKHPEGNFCLKNDLSMPRGTMQDGTSRFTCRGKPIHHFLGTSTFSQYTVVDEISVAKIDAASPLEKVCLIGCGFSTGYGSAVKVAKVTQGSTCAVFGLGGVGLSAIMGCKAAGAARIIGVDINKDKFAKAKEVGATECVNPQDYKKPIQEVLTEMSNGGVDFSFEVIGRLDTMVTALSCCQEAYGVSVIVGVPPDSQNLSMNPMLLLSGRTWKGAIFGGFKSKDSVPKLVADFMAKKFALDPLITHVLPFEKINEGFDLLRSGESIRTILTF
B2: Horse liver alcohol dehydrogenase (ADH), E isoenzyme (Equus caballus) (protein)
chain: STAGKVIKCKAAVLWEEKKPFSIEEVEVAPPKAHEVRIKMVATGICRSDDHVVSGTLVTPLPVIAGHEAAGIVESIGEGVTTVRPGDKVIPLFTPQCGKCRVCKHPEGNFCLKNDLSMPRGTMQDGTSRFTCRGKPIHHFLGTSTFSQYTVVDEISVAKIDAASPLEKVCLIGCGFSTGYGSAVKVAKVTQGSTCAVFGLGGVGLSVIMGCKAAGAARIIGVDINKDKFAKAKEVGATECVNPQDYKKPIQEVLTEMSNGGVDFSFEVIGRLDTMVTALSCCQEAYGVSVIVGVPPDSQNLSMNPMLLLSGRTWKGAIFGGFKSKDSVPKLVADFMAKKFALDPLITHVLPFEKINEGFDLLRSGESIRTILTF

Substrate: OCc1ccccc1
Test: steady-state kinetics
Type: biochemical, Equus caballus
Details: NAD+; catalytic zinc; 25.0 °C

| Protein | Km |
| --- | --- |
| B1 | 13 ± 1 µM |
| B2 | 14 ± 1 µM |
